Experiments:
Format in all cases: cell-based, human
[1] = test system: MKN45 cells; assay: Inhibition of proliferation of MKN45 gastric cancer cells (CellTiter-Glo, 5 days)
Description: The clones above were selected and further cultured to obtain monoclones. After verification of binding activity by ELISA, monoclones were selected for cultivation, and the resulting supernatant was subjected to a cell viability assay. According to the experiment principle, anti-human c-Met antibodies of the invention are able to inhibit phosphorylation of c-Met expressed on the surface of human gastric cancer cell line MKN45, thereby inhibiting the proliferation of MNK45 cells.
Human gastric cancer cells (MKN45, JCRB, JCRB0254, P11) were added to a 96-well cell culture plate (costar, #3799) at 1×10^5 cells/mL and 50 μl/well. The medium was RPMI1640 medium: (GIBCO, cat #11835)+10% FBS (GIBCO-10099141). Anti-human c-Met antibodies to be tested were added at 50 μl/well, and the plate was cultured for 5 days in incubator at 37′C (Manufacture: SANYO; Equipment No. TINC035). CellTiter-Glo® Luminescent Cell Viability Assay (Promega, G7573) was used, and the proliferation of cells was detected according to the instructions. The plate was read by a PerkinElmer plate reader, TREA001-RDA-IBA100. The following formula was used to calculate the percentage proliferation of cells: % proliferation of cells=(1−cell reads in experimental group/cell reads in untreated group)×100%.

[2] = test system: Caki-1 cells; assay: Agonist test: stimulation of Caki-1 cell proliferation; settings: highest concentration 20 μg/ml, 5 days
Experimental: Caki-1 cells express the hepatocyte growth factor receptor c-Met, and HGF can bind c-Met to stimulate Caki-1 cell proliferation. Therefore, agonist activity of anti c-Met antibodies could be evaluated by the proliferation of Caki-1 cells stimulated by the humanized anti c-Met antibodies of the invention compared with the proliferation of Caki-1 cells stimulated by HGF.
Caki-1 cells (Shanghai Branch of Chinese Academy of Science, TCHu135, P12) were added to a 96-well culture plate (costar, #3799) at 1000/well. The medium was McCoy's 5A (invitrogen, #16600)+10% FBS (GIBCO-10099141), and the condition was at 37° C. for 24 hours. Afterwards, cells were starved for 24 hours (The medium for cell starvation is McCoy's 5A and 0.5% FBS).

[3] = test system: MKN45 cells expressing c-Met; assay: Endocytosis of anti c-Met antibody in MKN45 cells (FACS); settings: 10 μg/ml
Experimental: Antibodies of the invention could bind to human c-Met, have very good in vitro activity, and inhibit tumor activity in vivo. […] In order to detect whether the antibody could be taken up into the cell along with human c-Met once bound to human c-Met, the human gastric cancer cell line MKN45 (JCRB, Cat No.: JCRB0254) expressing c-Met was used for evaluation. […] The plate was incubated at 4° C. for 1 hour. FACS buffer (phosphate buffer solution including 2.5% fetal bovine serum; Hyclone, Cat: SH30256.01B) was added, and the plate was centrifuged at 4° C., 1300 rpm for 4 minutes. The supernatant was discarded, and this procedure was repeated three times. 100 μl secondary antibody solution (Fluorescence labeled goat anti mouse secondary antibodies at 1:200 dilution, Biolegend, Cat No. 405307; Fluorescence labeled anti-human secondary antibody at 1:30 dilution, Biolegend, Cat No. 409304) was added into each well, and the plate was incubated at 4° C. for 1 hour. FACS buffer was added and the plate was centrifuged at 4° C., 1300 rpm for 4 minutes. The supernatant was discarded, and this procedure was repeated three times. […] FACS buffer was added and the plate was centrifuged at 4° C., 1300 rpm for 4 minutes. The supernatant was discarded, and this procedure was repeated three times. 200 μl Stripping buffer (0.05 M glycine, pH 3.0; 0.1 M NaCl, mixed in accordance with 1:1 (v/v)) was added to each well. The cells were resuspended and were incubated for 7 minutes at room temperature. The cells were centrifuged at room temperature at 1300 rpm for 4 minutes, and the supernatant was discarded. 200 μl neutralizing wash buffer (0.15M trihydroxymethyl aminomethane, pH 7.4) was added to each well, the cells were resuspended and centrifuged at room temperature at 1300 rpm for 4 minutes, and the supernatant was discarded. 200 μl FACS buffer was added, and the cells were resuspended. Samples were prepared and detected by flow cytometry (BD FACS Calibur). Endocytosis of c-Met antibody %=(intensity of fluorescence at various time points−average intensity of fluorescence at time 0)/average intensity of fluorescence at time 0.

B1: Ab-9: humanized anti c-Met antibody: heavy chain sequence of SEQ ID NO: 23 and light chain sequence of SEQ ID NO: 26 (antibody)
heavy: QVTLKESGPVLVKPTETLTLTCTVSGFSLPNYGVHWVRQPPGKALEWLAVIWSGGSTNYAAAFVSRLRISKDTSKSQVVFTMNNMDPVDTATYYCARNHDNPYNYAMDYWGQGTTVTVSSASTKGPSVFPLAPCSRSTSESTAALGCLVKDYFPEPVTVSWNSGALTSGVHTFPAVLQSSGLYSLSSVVTVPSSNFGTQTYTCNVDHKPSNTKVDKTVERKCCVECPPCPAPPVAGPSVFLFPPKPKDTLMISRTPEVTCVVVDVSHEDPEVQFNWYVDGVEVHNAKTKPREEQFNSTFRVVSVLTVVHQDWLNGKEYKCKVSNKGLPAPIEKTISKTKGQPREPQVYTLPPSREEMTKNQVSLTCLVKGFYPSDIAVEWESNGQPENNYKTTPPMLDSDGSFFLYSKLTVDKSRWQQGNVFSCSVMHEALHNHYTQKSLSLSPGK
light: DIVLTQSPASLAVSPGQRATITCRANKSVSTSTYNYLHWYQQKPGQPPKLLIYLASNLASGVPARFSGSGSGTDFTLTINPVEANDTANYYCQHSRDLPPTFGQGTKLEIKRTVAAPSVFIFPPSDEQLKSGTASVVCLLNNFYPREAKVQWKVDNALQSGNSQESVTEQDSKDSTYSLSSTLTLSKADYEKHKVYACEVTHQGLSSPVTKSFNRGEC
modifications: Ab-9 heavy chain; Ab-9 light chain
[1]
  Activity of inhibition of MKN45 cell proliferation Maximum inhibition rate (%): 33%
[2]
  Stimulation of proliferation of Caki-1: none
[3]; 0 h
  endocytosis % 0 h: 0%
[3]; 0.5 h
  endocytosis % 0.5 h: 26%
[3]; 1 h
  endocytosis % 1 h: 32%
[3]; 2 h
  endocytosis % 2 h: 32%
[3]; 4 h
  endocytosis % 4 h: 31%

Reference: patent US10543284B2, “Anti-c-Met antibody and anti-c-Met antibody-cytotoxic drug conjugate and pharmaceutical use thereof” (Suzhou Suncadia Biopharmaceuticals Co., Ltd., priority 2015, dated 2020)
